Results published in patent US20240182941A1, “XYLOSYLATED STEVIOL GLYCOSIDES AND ENZYMATIC METHODS FOR PRODUCTION” (CARGILL, INCORPORATED, priority 2021, published 2024).
Where “and” joins values, the source holds several entries; their conditions need not be identical. Equal values may be shown once.

Assay: Glycosyltransferase assay of SEQ ID NO:1 homologs and variants (IVTT enzymes) on Reb A
Type: biochemical
Details: Reb A acceptor; for Activity relative to the activity of SEQ ID NO:1, Glucose: UDP-glucose; for Activity relative to the activity of SEQ ID NO:1, Glucose / Activity relative to the activity of SEQ ID NO:1, Xylose: SEQ ID1 = 100%; for Activity relative to the activity of SEQ ID NO:1, Xylose: UDP-xylose
Protocol: Candidate xylosyltransferase enzymes are produced in vitro using the PURExpress In Vitro Protein Synthesis kit from New England Biolabs (NEB #E6800) according to the manufacturer's instructions, including 250 ng plasmid DNA and the addition of 20 units RNase Inhibitor, Murine (NEB #M0314).
The steviol glycoside (SG) ‘acceptors’ Reb A was tested using 4 glucosyltransferase enzymes (SEQ ID NOs: 1-4) homologous to glucosyltransferases in SG biosynthesis in stevia leaves.
UDP-xylose (98.9% purity) was purchased from BOC Sciences. The activated sugar donors were prepared to 10 mM concentration with 0.05 M tris buffer and stored according to manufacturers' recommendations before use. SG materials were obtained from various sources with 90%+ purities. All SG materials were prepared at 20 mM with 90% DMSO and stored at ambient temperature. Final DMSO concentration in the reaction mixture was 4.5%.
Tris (tris(hydroxymethyl)aminomethane) buffer was prepared at 0.05 M, pH 7.3 and contained 3 mM each of MgCl2 and MnCl2 as co-factors.
Enzymes were produced via in vitro transcription-translation (IVTT) and activities were confirmed using UDP-glucose in a preliminary test. Bioconversion reaction was carried out in a total of 100 μL sealed vials containing the Tris buffer, 0.1 μmoles of SG acceptor, 0.2 μmoles of activated sugar donor, 1 μmoles of sucrose and 2 μg protein of the enzymes. To each vial, buffer, UDP-sugar donor, SG acceptor were added in that order before, finally, the enzymes were added. For each SG donor, a control was included to contain the same amounts of enzymes without UDP-sugar donors. […]
[…] Xylose modification of the -19C(O)-β-Glc residue was confirmed.
Activity of SEQ ID NOs: 2-4 is expressed relative to the activity of SEQ ID NO:1. […] [SEQ ID NO:3 was run more than once in this experiment,]

Activity relative to the activity of SEQ ID NO:1, Glucose (18 hrs)	Activity relative to the activity of SEQ ID NO:1, Glucose (48 hrs)	Activity relative to the activity of SEQ ID NO:1, Glucose (96 hrs)	Activity relative to the activity of SEQ ID NO:1, Xylose (18 hrs)	Activity relative to the activity of SEQ ID NO:1, Xylose (48 hrs)	Activity relative to the activity of SEQ ID NO:1, Xylose (96 hrs)	overall activity relative to SEQ ID NO:1 (Table 8)	Molecule
174%	151%	170%	11.5%	9.68%	10.9%		SEQ ID4: glucosyltransferase enzyme, 25% identity to SEQ ID NO:1 (protein, listed as Lycium barbarum) MGTEVTVHKNTLRVLMFPWLAYGHISPFLNVAKKLVDRGFLIYLCSTAINLKSTIKKIPEKYSDSIQLIELHLPELPELPPHYHTTNGLPPHLNHTLQKALKMSKPNFSKILQNLKPDLVIYDLLQQWAEGVANEQNIPAVKLLTSGAAVLSYFFNLVKKPGVEFPFPAIYLRKNELEKMSELLAQSAKDKEPDGVDPFADGNMQVMLMSTSRIIEAKYIDYFSGLSNWKVVPVGPPVQDPIADDADEMELIDWLGKKDENSTVFVSFGSEYFLSKEDREEIAFGLELSNVNFIWVARFPKGEEQNLEDALPKGFLERIGDRGRVLDKFAPQPRILNHPSTGGFISHCGWNSVMESVDFGVPIIAMPIHLDQPMNARLIVELGVAVEIVRDDYGKIHREEIAEILKDVIAGKSGENLKAKMRDISKNLKSIRDEEMDTAAEELIQLCKNSPKLK
825%	578%	504%	459%	392%	312%	substantially overall increased activity	SEQ ID2: glycosyltransferase variant with a single serine to isoleucine change at position 152 relative to SEQ ID NO:1 (protein, listed as Oryza sativa) MDSGYSSSYAAAAGMHVVICPWLAFGHLLPCLDLAQRLASRGHRVSFVSTPRNISRLPPVRPALAPLVAFVALPLPRVEGLPDGAESTNDVPHDRPDMVELHRRAFDGLAAPFSEFLGTACADWVIVDVFHHWAAAAALEHKVPCAMMLLGIAHMIASIADRRLERAETESPAAAGQGRPAAAPTFEVARMKLIRTKGSSGMSLAERFSLTLSRSSLVVGRSCVEFEPETVPLLSTLRGKPITFLGLMPPLHEGRREDGEDATVRWLDAQPAKSVVYVALGSEVPLGVEKVHELALGLELAGTRFLWALRKPTGVSDADLLPAGFEERTRGRGVVATRWVPQMSILAHAAVGAFLTHCGWNSTIEGLMFGHPLIMLPIFGDQGPNARLIEAKNAGLQVARNDGDGSFDREGVAAAIRAVAVEEESSKVFQAKAKKLQEIVADMACHERYIDGFIQQLRSYKD
100%	100%	100%	100%	100%	100%		SEQ ID1: uridine 5′-diphospho (UDP) glycosyl transferase of 462 amino acids from Oryza sativa Japonica Group (protein, listed as Oryza sativa) MDSGYSSSYAAAAGMHVVICPWLAFGHLLPCLDLAQRLASRGHRVSFVSTPRNISRLPPVRPALAPLVAFVALPLPRVEGLPDGAESTNDVPHDRPDMVELHRRAFDGLAAPFSEFLGTACADWVIVDVFHHWAAAAALEHKVPCAMMLLGSAHMIASIADRRLERAETESPAAAGQGRPAAAPTFEVARMKLIRTKGSSGMSLAERFSLTLSRSSLVVGRSCVEFEPETVPLLSTLRGKPITFLGLMPPLHEGRREDGEDATVRWLDAQPAKSVVYVALGSEVPLGVEKVHELALGLELAGTRFLWALRKPTGVSDADLLPAGFEERTRGRGVVATRWVPQMSILAHAAVGAFLTHCGWNSTIEGLMFGHPLIMLPIFGDQGPNARLIEAKNAGLQVARNDGDGSFDREGVAAAIRAVAVEEESSKVFQAKAKKLQEIVADMACHERYIDGFIQQLRSYKD
81.5% and 148%	87.1% and 132%	99.1% and 148%	47.1% and 78.1%	51.0% and 78.6%	38.9% and 62.1%		SEQ ID3: glucosyltransferase enzyme, 27% identity to SEQ ID NO:1 (protein, listed as Solanum lycopersicum) MATNLRVLMFPWLAYGHISPFLNIAKQLADRGFLIYLCSTRINLESIIKKIPEKYADSIHLIELQLPELPELPPHYHTTNGLPPHLNPTLHKALKMSKPNFSRILQNLKPDLLIYDVLQPWAEHVANEQNIPAGKLLTSCAAVFSYFFSFRKNPGVEFPFPAIHLPEVEKVKIREILAKEPEEGGRLDEGNKQMMLMCTSRTIEAKYIDYCTELCNWKVVPVGPPFQDLITNDADNKELIDWLGTKHENSTVFVSFGSEYFLSKEDMEEVAFALELSNVNFIWVARFPKGEERNLEDALPKGFLERIGERGRVLDKFAPQPRILNHPSTGGFISHCGWNSAMESIDFGVPIIAMPIHNDQPINAKLMVELGVAVEIVRDDDGKIHRGEIAETLKSVVTGETGEILRAKVREISKNLKSIRDEEMDAVAEELIQLCRNSNKSK
